The target in experiment [1] is T1, mouse (Mus musculus) IL17 (moIL17) (mouse (Mus musculus), UniProt Q62386 26-158).
T1 construct: also called mIL17; mouse IL17
T1 sequence: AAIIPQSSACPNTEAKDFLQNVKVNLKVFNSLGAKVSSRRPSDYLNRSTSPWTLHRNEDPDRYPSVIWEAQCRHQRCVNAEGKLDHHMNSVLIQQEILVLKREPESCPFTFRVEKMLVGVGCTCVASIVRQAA
Nature of the experiment: ELISA, coated IL17 1 ug/ml, HRP-anti-human IgG. (ELISA stands for enzyme-linked immunosorbent assay.)

Experiment [2] has as its target T2, Macaca mulatta IL17 (mmIL17) (Macaca mulatta, UniProt Q16552 24-155 (human entry), limits assumed).
T2 chain: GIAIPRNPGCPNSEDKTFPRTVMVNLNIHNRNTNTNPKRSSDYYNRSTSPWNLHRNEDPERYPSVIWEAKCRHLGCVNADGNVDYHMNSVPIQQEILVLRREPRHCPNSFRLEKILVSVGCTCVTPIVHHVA
Description: ELISA, coated IL17 1 ug/ml, HRP-anti-human IgG.

Experiment [3] concerns the target T3, Macaca fascicularis IL17 (mfIL17) (Macaca fascicularis, UniProt Q16552 24-155 (human entry), limits assumed).
T3 chain: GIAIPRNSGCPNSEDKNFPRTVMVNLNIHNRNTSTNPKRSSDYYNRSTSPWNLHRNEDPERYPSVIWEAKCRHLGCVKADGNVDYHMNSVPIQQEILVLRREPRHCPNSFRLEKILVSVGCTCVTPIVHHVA
Nature of the experiment: ELISA, coated IL17 1 ug/ml, HRP-anti-human IgG.

The target of experiment [4] is T4, huIL17-his (human IL17 with C-terminal His-tag) (human (homo sapiens), UniProt Q16552 24-155).
T4 sequence: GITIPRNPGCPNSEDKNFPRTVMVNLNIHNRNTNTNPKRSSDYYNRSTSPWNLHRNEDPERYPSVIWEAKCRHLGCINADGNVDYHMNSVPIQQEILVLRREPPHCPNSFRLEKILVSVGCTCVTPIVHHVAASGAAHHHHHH
Description: cell-based or functional assay.

Consider five molecules from patent US20170327571A1 (BEIJING BETTERMAB BIOTECHNOLOGY, published 2017).

B1: anti-IL17 monoclonal antibody 9GA3 (antibody, V domains shown)
VH: EVQLVESGGGLVQPGGSLRLSCAASGITMDDYWMNWVRQAPGKGLEWVAAINQDGNEKYYVGSVKGRFTISRDNAKNSLYLQMNSLRVEDTAVYYCVRDYYDLISDYYIHYWYFDLWGRGTLVTVSS
VL: DIQMTQSPSSLSASVGDRVTITCRASQNVHNRLTWYQQKPGKAPKLLIYGASNLESGVPSRFSGSGSGTDFTLTISSLQPEDFATYYCQQYNGSPTTFGQGTKVEIK
notes: Recombinant intact antibody
Take B1: the values for the binding result in experiment [1], in experiment [2] and in experiment [3] were “no binding”, “binds” and “binds”, respectively. The “IC50 of inhibiting IL17-induced release of IL6 by HDFa cells (2 nM IL17-His)” value in experiment [4] was found to be 120 pM.

B2: control antibody Secukinumab (antibody, V domains shown)
VH: EVQLVESGGGLVQPGGSLRLSCAASGFTFSNYWMNWVRQAPGKGLEWVAAINQDGSEKYYVGSVKGRFTISRDNAKNSLYLQMNSLRVEDTAVYYCVRDYYDILTDYYIHYWYFDLWGRGTLVTVSS
VL: not shown
In the case of B2, in experiment [1], the binding result is recorded as “no binding”.

B3: anti-IL17 monoclonal antibody 9GC2 (antibody, V domains shown)
VH: EVQLVESGGGLVQPGGSLRLSCAASGFTIDNYWMNWVRQAPGKGLEWVAAINQDGNEKYYVGSVKGRFTISRDNAKNSLYLQMNSLRVEDTAVYYCVRDYYDVISDYYIHYWYFDLWGRGTLVTVSS
VL: DIQMTQSPSSLSASVGDRVTITCRASQNVHNRLTWYQQKPGKAPKLLIYGASNLESGVPSRFSGSGSGTDFTLTISSLQPEDFATYYCQQYNGSPTTFGQGTKVEIK
notes: Recombinant intact antibody
Turning to B3, the binding result in experiment [1] is given as “no binding”; in experiment [2], “binds”; in experiment [3] it was “binds”. Also, the “IC50 of inhibiting IL17-induced release of IL6 by HDFa cells (2 nM IL17-His)” value in experiment [4] came to 220 pM.

B4: anti-IL17 monoclonal antibody 9GC5 (antibody, V domains shown)
VH: EVQLVESGGGLVQPGGSLRLSCAASGMSMSDYWMNWVRQAPGKGLEWVAAINQDGDEKYYVGSVKGRFTISRDNAKNSLYLQMNSLRVEDTAVYYCVRDYYDLISDYYIHYWYFDLWGRGTLVTVSS
VL: DIQMTQSPSSLSASVGDRVTITCRASQNVHNRLTWYQQKPGKAPKLLIYGASNLESGVPSRFSGSGSGTDFTLTISSLQPEDFATYYCQQYNGSPTTFGQGTKVEIK
notes: Recombinant intact antibody
B4: the binding result is listed as “no binding” in experiment [1], “binds” in experiment [2] and “binds” in experiment [3]. In addition, in experiment [4], the “IC50 of inhibiting IL17-induced release of IL6 by HDFa cells (2 nM IL17-His)” value is 70 pM.

B5: Ixekizumab (antibody, V domains shown)
VH: QVQLVQSGAEVKKPGSSVKVSCKASGYSFTDYHIHWVRQAPGQGLEWMGVINPMYGTTDYNQRFKGRVTITADESTSTAYMELSSLRSEDTAVYYCARYDYFTGTGVYWGQGTLVTVSS
VL: DIVMTQTPLSLSVTPGQPASISCRSSRSLVHSRGNTYLHWYLQKPGQSPQLLIYKVSNRFIGVPDRFSGSGSGTDFTLKISRVEAEDVGVYYCSQSTHLPFTFGQGTKLEIK
Consider B5, for which the results for the binding result in experiment [1], in experiment [2] and in experiment [3] were “no binding”, “binds” and “binds”, respectively.
